This is an account of results in publication PMC4176161.

Assay [1] concerns the target T1, …3 (SEP3) (Arabidopsis thaliana), O22456.
T1 chain: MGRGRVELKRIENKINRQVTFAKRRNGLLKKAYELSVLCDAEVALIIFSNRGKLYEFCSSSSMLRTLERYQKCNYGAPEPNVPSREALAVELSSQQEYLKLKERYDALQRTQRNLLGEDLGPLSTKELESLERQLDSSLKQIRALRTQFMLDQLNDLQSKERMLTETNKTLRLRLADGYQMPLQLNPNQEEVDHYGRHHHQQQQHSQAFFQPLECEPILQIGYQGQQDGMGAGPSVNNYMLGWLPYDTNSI
The experiment in a line: native gel or EMSA. The note with it: remark: other sources report otherwise. (Mobility shift assays separate free from complexed probe on a gel.)

The target is the same in assay [2]. Put plainly: native gel or EMSA. The conditions noted are these: remark: other sources report otherwise.

B1: …3 (SEP3), O22456 1-251 (natural protein)
chain: T1 chain
For B1, the stoichiometry N in assay [1] was determined as 4; in assay [2] it was 2.

As a reminder, the stoichiometry N is the number of molecules, sites or subunits per partner or assembly.
